Laboratory results published in PMC2120109 (The Journal of Cell Biology, 1994).
Substitutions are numbered along the chain they refer to. In names and notes the source's numbering stands.

B1: NSF K266A mutant with His6 at the amino terminus and a myc epitope at the carboxy terminus (natural protein, UniProt P18708 1-744, looked up)
chain: MAGRSMQAARCPTDELSLSNCAVVSEKDYQSGQHVIVRTSPNHKYIFTLRTHPSVVPGSVAFSLPQRKWAGLSIGQEIEVALYSFDKAKQCIGTMTIEIDFLQKKNIDSNPYDTDKMAAEFIQQFNNQAFSVGQQLVFSFNDKLFGLLVKDIEAMDPSILKGEPASGKRQKIEVGLVVGNSQVAFEKAENSSLNLIGKAKTKENRQSIINPDWNFEKMGIGGLDKEFSDIFRRAFASRVFPPEIVEQMGCKHVKGILLYGPPGCGATLLARQIGKMLNAREPKVVNGPEILNKYVGESEANIRKLFADAEEEQRRLGANSGLHIIIFDEIDAICKQRGSMAGSTGVHDTVVNQLLSKIDGVEQLNNILVIGMTNRPDLIDEALLRPGRLEVKMEIGLPDEKGRLQILHIHTARMRGHQLLSADVDIKELAVETKNFSGAELEGLVRAAQSTAMNRHIKASTKVEVDMEKAESLQVTRGDFLASLENDIKPAFGTNQEDYASYIMNGIIKWGDPVTRVLDDGELLVQQTKNSDRTPLVSVLLEGPPHSGKTALAAKIAEESNFPFIKICSPDKMIGFSETAKCQAMKKIFDDAYKSQLSCVVVDDIERLLDYVPIGPRFSNLVLQALLVLLKKAPPQGRKLLIIGTTSRKDVLQEMEMLNAFSTTIHVPNIATGEQLLEALELLGNFKDKERTTIAQQVKGKKVWIGIKKLLMLIEMSLQMDPEYRVRKFLALLREEGASPLDFD
B2: NSF double hydrolysis mutant E329/D604Q (natural protein, UniProt P18708 1-744, looked up)
chain: B1 chain with A266K, E329Q, D604Q
B3: NSF D604Q mutant (natural protein, UniProt P18708 1-744, looked up)
chain: B1 chain with A266K, D604Q
B4: NSF K549A mutant (natural protein, UniProt P18708 1-744, looked up)
chain: B1 chain with A266K, K549A
B5: NSF E329Q mutant (natural protein, UniProt P18708 1-744, looked up)
chain: B1 chain with A266K, E329Q

Target: the molecule itself
Experiment: SEC

Binding result, binds:
B1
B2
B3
B4
B5
